According to article PMC3575409, “Identification of a Novel Protein-Protein Interaction Motif Mediating Interaction of GPCR-Associated Sorting Proteins with G Protein-Coupled Receptors” (PLoS ONE, 2013):

Tests used:
[1] = system: GST-fused CNR2 C-tail; assay: GST-pull down, CNR2 C-tail; type: binding; conditions: central domain compared to full-length GASP-1
Experimental: (§1) cDNAs encoding the cytoplasmic C-tail of 14 GPCRs and 2 one-transmembrane receptors were cloned into the pGEX-2T prokaryotic expression vector downstream the GST sequence. […]
(§2) GST-fusion proteins were immobilized on glutathione-coupled Sepharose beads (GE Healthcare) for 1 h at 4°C and incubated with [^35S]-labelled in vitro translated GASP proteins or their truncated or mutated forms in ice-cold binding buffer containing: 20 mM Tris-HCl pH 7.4, 150 mM NaCl, 1 mM EDTA, 1 mM DTT, 10% glycerol and 1% Triton X-100. […] The supernatants were then analyzed by SDS-PAGE, the gels were stained with Coomassie blue to visualize GST-fusion proteins, dried and analyzed using a Phosphor-imager (Personal Molecular Imager FX, Biorad) to visualize [^35S]-labelled GASPs. Quantification was performed with the Quantity One software (Biorad). GST-pull down quantification data were analyzed using GraphPad Prism 4.03 (GraphPad Software). Quantifications presented are means of at least three independent experiments.

[2] = system: GFP-tagged M1 receptor in HEK293 cells; assay: Co-immunoprecipitation, M1; type: cell-based; conditions: 48 h expression, anti-GFP immunoprecipitation
Experimental: HEK293 cells stably expressing N-terminal GFP-tagged ADRB1, ADRB2, CALCR and M1 or MyrPalm-mYFP were transfected with pcDNA3.1 containing the sequence for a central domain of GASP-1 (AA 380 to 1073) using JetPEI reagent (polyplus transfection) according to the instructions from the manufacturer. After 48 h of expression, cells were washed twice with PBS and lysed in a buffer containing 10 mM Tris-HCl, pH 7.4, 150 mM NaCl, 25 mM KCl, 0.3% Triton X-100 and cOmplete protease inhibitors (Roche) for 1 h at 4°C under agitation. 500 µg of cleared lysates were incubated with 1 µg of a mouse monoclonal anti-GFP antibody (Invitrogen) overnight at 4°C, followed by an incubation with 40 µl of protein A-Sepharose beads for an additional 2 h at 4°C. Beads were then washed five times in lysis buffer and precipitates were resolved on an 8% gel by SDS–PAGE and electrotransferred to immobilon-P membranes (Millipore) in 50 mM Tris-boric acid for 1 h at 300 mA. Membranes were blocked with 5% non-fat powder milk in TBS-Tween (50 mM Tris-HCl pH 8, 150 mM NaCl, 0.4% Tween-20) for 1 h at room temperature. […] For immunodetection of GASP or GFP-tagged receptors directly from cell lysates, 10 µg of proteins were loaded on SDS gels and analyzed following the procedure described above. Finally, membranes were washed in TBS-Tween and detected by chemiluminescence (ECL prime, GE Healthcare). […]

[3] = system: GST-fused ADRB2 C-tail; assay: GST-pull down, ADRB2 C-tail; type: binding; conditions: central domain compared to full-length GASP-1
Experimental: as §1, §2

[4] = system: GST-fused DOR C-tail; assay: GST-pull down, DOR C-tail; type: binding; conditions: percent of full-length GASP-1 interaction; three independent experiments
Summary of the method: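 Radiolabelled GASPs ([35S]-Met, coupled transcription/translation) were pulled down by bead-immobilized GST-receptor C-tails, 1 h, 4°C, in 20 mM Tris-HCl pH 7.4, 150 mM NaCl, 1% Triton X-100, 10% glycerol. After five washes, retained GASP was imaged by phosphorimager; values are means of ≥3 experiments.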

B1: central domain of GASP-1: central portion of GASP-1 (AA 380 to 1073) that contains 19 GASP motif (protein)
chain: MTKEEAKTKARARAKQEARSEEEALIGTWFWATDESSMADEASIESSLQVEDESIIGSWFWTEEEASMGTGASSKSRPRTDGERIGDSLFGAREKTSMKTGAEATSESILAADDEQVIIGSWFWAGEEVNQEAEEETIFGSWFWVIDAASVESGVGVSCESRTRSEEEEVIGPWFWSGEQVDIEAGIGEEARPGAEEETIFGSWFWAENQTYMDCRAETSCDTMQGAEEEEPIIGSWFWTRVEACVEGDVNSKSSLEDKEEAMIPCFGAKEEVSMKHGTGVRCRFMAGAEETNNKSCFWAEKEPCMYPAGGGSWKSRPEEEEDIVNSWFWSRKYTKPEAIIGSWLWATEESNIDGTGEKAKLLTEEETIINSWFWKEDEAISEATDREESRPEAEEGDIIGSWFWAGEEDRLEPAAETREEDRLAAEKEGIVGSWFGAREETIRREAGSCSKSSPKAEEEEVIIGSWFWEEEASPEAVAGVGFESKPGTEEEEITVGSWFWPEEEASIQAGSQAVEEMESETEEETIFGSWFWDGKEVSEEAGPCCVSKPEDDEEMIVESWFWSRDKAIKETGTVATCESKPENEEGAIVGSWFEAEDEVDNRTDNGSNCGSRTLADEDEAIVGSWFWAGDEAHFESNPSPVFRAICRSTCSVEQEPDPSRRPQSWEEVTVQFKPGPWGRVGFPSISPFRFPKE
modifications: left off: GST, N-terminal, kept
notes: central portion of GASP-1 (AA 380 to 1073) that contains 19 GASP motif
[1]
  interaction with CNR2 C-tail: mandatory and sufficient for this interaction
[2]
  co-immunoprecipitation with M1: co-immunoprecipitated
[3]
  interaction with ADRB2 C-tail: mandatory and sufficient for this interaction
[4]
  interaction with DOR C-tail relative to full-length GASP-1: ~30%
